# Article PMC7587433, “A Giant Extracellular Matrix Binding Protein of Staphylococcus epidermidis Binds Surface-Immobilized Fibronectin via a Novel Mechanism” (mBio, 2020)
# Molecular target: T1, rFN12-14 (recombinant fibronectin type III repeats 12 to 14)
# T1 construct: fibronectin, type III repeats 12 to 14; Held by its His tag on Immobilizer Nickel-Chelate plates in the adherence assays; immobilised on a C1 sensor chip in SPR
# Assay: SPR; Biacore T200, C1 sensor chip; rFN12-14 immobilised (~870 RU); rF-, rFG-repeat or multiple repeats in HBS-EP injected at 40 μl/min; double referencing
# Conditions: both partners purified
binder,measurement,value
"r5FG-repeats (recombinant Embp fragment, aa 6777 to 7406) (domain or fragment) ADQKLQDAKTDAKQQITNFTGLTEPQKQALENIINQQTSRANVAKQLSHAKFLNGKMEELKVAVAKASLVRQNSNYINEDVSEKEAYEQAIAKGQEIINSENNPTISSTDINRTIQEINDAEQNLHGDNKLRQAQEIAKNEIQNLDGLNSAQITKLIQDIGRTTTKPAVTQKLEEAKAINQAMQQLKQSIADKDATLNSSNYLNEDSEKKLAYDNAVSQAEQLINQLNDPTMDISNIQAITQKVIQAKDSLHGANKLAQNQADSNLIINQSTNLNDKQKQALNDLINHAQTKQQVAEIIAQANKLNNEMGTLKTLVEEQSNVHQQSKYINEDPQVQNIYNDSIQKGREILNGTTDDVLNNNKIADAIQNIHLTKNDLHGDQKLQKAQQDATNELNYLTNLNNSQRQSEHDEINSAPSRTEVSNDLNHAKALNEAMRQLENEVALENSVKKLSDFINEDEAAQNEYSNALQKAKDIINGVPSSTLDKATIEDALLELQNARESLHGEQKLQEAKNQAVAEIDNLQALNPGQVLAEKTLVNQASTKPEVQEALQKAKELNEAMKALKTEINKKEQIKADSRYVNADSGLQANYNSALNYGSQIIATTQPPELNKDVINRATQTIKTAENNLN",Kd,10 µM
